73 sequences from the supplement of paper PMC10567573 can be followed below.

This data set in a line: protein stability index of a GFP-peptide fusion (GPS, HEK-293T) (PSI 1-6); higher = more stable.
Where [1] appears, read: treatment: DMSO, c terminus: a fixed tail appended.
Setting [2] is: treatment: MLN4924 1 uM, 8 h, c terminus: a fixed tail appended.
Setting [3] is: treatment: DMSO, c terminus: native.
Where [4] appears, read: treatment: MLN4924 1 uM, 8 h, c terminus: native.

± gives the standard deviation.
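Also: 24-mer peptide tiles fused after GFP, lentivirally expressed, FACS-sorted into six equal bins by GFP/DsRed ratio, decoded by Illumina sequencing, PSI is the read-weighted mean bin number.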

For the sequence KPKPPPNSEGEQGPNGSQNSSYSQ [CCNC], the protein stability index reads like this: under setting [1], 5.43 ± 0.14; under setting [2], 5.55 ± 0.18. As to KPPPNSEGEQGPNGSQNSSYSQS [CCNC], the protein stability index amounted to 5.36 ± 0.24 under setting [3] and 5.41 ± 0.27 under setting [4]. For KQDLVPGSPDDSHPKDGPSPGGTL [DLC1], the protein stability index worked out at 5.53 ± 0.25 under setting [1] and 5.37 ± 0.43 under setting [2]. Consider KQLKPWCWYCNRDFDDEKILIQHQ [ZNF207], for which the protein stability index by setting is: under setting [1], 2.21 ± 0.45; under setting [2], 2.46 ± 0.59. For KQQLVDAFLKLAKQRSVCTWGKNK [FAN1], in that order: 2.31 ± 0.21 and 2.25 ± 0.16. Turning to KQRGYFFLDERLYCESHAKARVKP [PDLIM4], the protein stability index amounted to 2.81 ± 0.64 under setting [1] and 3.11 ± 0.38 under setting [2]. On to KQTIGNSCKACGYRGMLDTHHKLC [EIF5], for which the protein stability index under setting [1] is 2.8 ± 0.37 and the protein stability index under setting [2] turned out to be 2.81 ± 0.5. For KREELCRQIQEEEDEKQRLQNEVR [SSNA1], in that order: 5.01 ± 0.22 and 5.1 ± 0.075.

KRGFEVVYMTEPIDEYCVQQLKEF [HSP90AB1] registered a protein stability index under setting [1] of 2.56 ± 0.35.

For the sequence KRKRVKQRINTYVFVGNQLIPQPL [PCMTD1], the protein stability index by setting is: under setting [1], 2.38 ± 0.17; under setting [2], 2.73 ± 0.35. Take KSGEGFIDFIGQVHKTKEQFGQDG [PTPRD]: the protein stability index reads like this: under setting [1], 4.24 ± 0.49; under setting [2], 4.23 ± 0.17. As to KSLEGGGTAFDAETDSEMNSQESR [SMG5], the protein stability index runs as follows: under setting [1], 5.5 ± 0.15; under setting [2], 5.58 ± 0.15. For KSMAWCENSICVGFKRDYYLIRVD [VPS39], in that order: 3 ± 1.3 and 2.39 ± 0.89. For KSPEMPVILEVSLEGSHDTANCEA [RTP4], the protein stability index reads like this: under setting [1], 4.85 ± 0.11; under setting [2], 5.07 ± 0.34. In the same order, the values of KSSIIPFRALKRPLQFLGLFENSL [ZER1] are 1.9 ± 0.5 and 2.31 ± 0.45. As for KTMPKSVVGLHAASKDPREVREAR [EHMT1], the protein stability index under setting [1] was 4.78 ± 0.09 and the protein stability index under setting [2] is 4.86 ± 0.26. For KTPEEAYRALLSGSNPPYLPFRDA [CDC14A], in that order: 3.27 ± 0.3 and 3.31 ± 0.25. For KTPYDTSRRQEKSAGDADPENGEI [ELOA2], the protein stability index by setting is: under setting [1], 5.3 ± 0.22; under setting [2], 5.51 ± 0.17. For KVFEELLLDADWSINAGSWMWLSC [CRY1], in that order: 2.28 ± 0.49 and 2.58 ± 0.27. For KVHYLFPDGKEMAEEYDEKTSELL [DPCD], in that order: 4.32 ± 0.25 and 4.42 ± 0.12.

Take KVQELMSTHELEKKELEENFEKLR [MTUS2]: the protein stability index is 4.97 ± 0.54 under setting [1] and 5.14 ± 0.23 under setting [2]. For LACGTMSSTCGQLASYPLALVRTR [SLC25A25], in that order: 1.96 ± 0.16 and 2.36 ± 0.12.

With LAGGYTSSLACHRALQDAFSGLFW [MNAT1], the protein stability index under setting [1] worked out at 2.44 ± 0.12 and the protein stability index under setting [2] came out at 2.45 ± 1. For LAGLSVGRSSLTACSLPLCACLLG [PXN], in that order: 2.33 ± 0.39 and 2.33 ± 0.22. For LASISTYGFRGEALASISHVAHVT [MLH1], in that order: 2.19 ± 0.48 and 2.19 ± 0.23.

In the case of LAVLGADERIFSLTRRLAHGEELR [HAGHL], the protein stability index under setting [1] stood at 2.82 ± 0.23 and the protein stability index under setting [2] was 2.81 ± 0.38. Take LCDGNPRRPSPVLRHLELLDEFAR [SCNN1D]: the protein stability index under setting [1] is 3.26 ± 0.087 and the protein stability index under setting [2] came to 3.53 ± 0.26.

For LCKNLNREAQQYSEALASTRILKH [GLIPR2], the protein stability index runs as follows: under setting [1], 3.57 ± 0.32; under setting [2], 3.74 ± 0.33. In the same order, the values of LCLNTEDSFVCQCSEGFLINEDLK [MATN2] are 3.03 ± 0.28 and 3.38 ± 0.28.

On to LCTPEGWFSCQGPFDMDSCLSRHS [DFFB], for which the protein stability index is, setting by setting: under setting [1], 2.52 ± 0.5; under setting [2], 2.75 ± 0.38.

Regarding LDAVENQLKWASWELHSLRHCDDD [ZNF24], the protein stability index worked out at 3.96 ± 0.12 under setting [1] and 4.03 ± 0.15 under setting [2]. In the same order, the values of LDDEDDDEEDCPNPEEYNLDEPNA [SRPK2] are 5.57 ± 0.22 and 5.58 ± 0.24. For the sequence LDHLSLGEEPVPHQQVEEALSFTL [NEK8], the protein stability index under setting [1] worked out at 4.1 ± 0.35 and the protein stability index under setting [2] was 4 ± 0.29. Take LDLKGNNLRAAGAEALGKLLQQNK [LRRC45]: the protein stability index under setting [1] stood at 4.39 ± 0.19 and the protein stability index under setting [2] was found to be 4.27 ± 0.097. For LDLRVKGILSSQAEGLANGPDVLE [EHMT1], in that order: 4.12 ± 0.2 and 4.07 ± 0.39. In the same order, the values of LDVVDNQTEKLDTNITEVDAASVY [CASP6] are 5.06 ± 0.15 and 5.25 ± 0.15. With LEEFKENAYKDLAWKHGNIHLSAP [PCMTD2], the protein stability index reads like this: under setting [1], 3.33 ± 0.26; under setting [2], 3.81 ± 0.12. With LEEKDRVLKKQDAFYKEQLARLEE [CHCHD3], the protein stability index runs as follows: under setting [1], 5.04 ± 0.25; under setting [2], 5.17 ± 0.24. For the sequence LEKEQVAHIRAERDILVEADGAWV [STK38L], the protein stability index was 3.8 ± 0.31 under setting [1] and 3.916 ± 0.026 under setting [2]. Turning to LESSDLPVALLLAQHKDRSTQLEM [MNAT1], the protein stability index is, setting by setting: under setting [1], 3.47 ± 0.23; under setting [2], 3.53 ± 0.3. As for LFAELGYFTDTDELQLEAANETYE [ATF6], the protein stability index reads like this: under setting [1], 4.04 ± 0.1; under setting [2], 4.15 ± 0.24. In the same order, the values of LFDFDLEVKPVLEVLVGKTIEQSL [RSPH3] are 2.48 ± 0.42 and 2.42 ± 0.039. For LFLKEGACDELFSYLIEKVKRKKN [PRAME], in that order: 2.18 ± 0.5 and 2.21 ± 0.27.

LFSEASECMLLVFGIDVKEVDPTG [MAGEA10]: the protein stability index under setting [1] was 2.3 ± 0.69 and the protein stability index under setting [2] is 2.54 ± 0.21. With LFVGLYYNVIIGWSIFYFFKSFQY [SLC6A17], the protein stability index under setting [2] was 3.17 ± 1.5. As for LFVTVTAVNLSVSTLPSLREEEEQ [KCNG1], the protein stability index came to 2.13 ± 0.34 under setting [1] and 2.18 ± 0.45 under setting [2]. In turn, LGTKSCSSSCAVHDLIFWRDVKKT [RTN3] had a protein stability index under setting [1] of 2.29 ± 0.45 and a protein stability index under setting [2] of 2.09 ± 0.33. Take LHAWQINWPARQRGTHAVVGVATA [SPSB4]: the protein stability index by setting is: under setting [1], 2.39 ± 0.25; under setting [2], 2.31 ± 0.21. For LHDARLLRTIPSPYPASKADIPSV [DCAF4], in that order: 3.36 ± 0.21 and 3.43 ± 0.11.

As to LICFCRESRYMDQWVPVINLPER [GADD45A], the protein stability index reads like this: under setting [3], 2.98 ± 1.1; under setting [4], 2.87 ± 0.84. As for LIGLPPEDDWPRDVSLPRGAFPPR [CDK4], the protein stability index came out at 3.49 ± 0.32 under setting [1] and 3.69 ± 0.23 under setting [2]. For LIRSLFHGFLFMIFQIGVLGFGPT [SOAT1], in that order: 3.52 ± 0.5 and 3.28 ± 0.63.

Sequence LISCSEDGSVRIWELREKQQLAAE [WDR41] yielded a protein stability index under setting [1] of 2.89 ± 0.28 and a protein stability index under setting [2] of 2.97 ± 0.2.

Turning to LISQCGKPVVNVSYRPAYDQGGPV [DUSP5], the protein stability index was 2.61 ± 0.38 under setting [1] and 2.6 ± 0.42 under setting [2]. For LKKKHQLLEDARRKGMPFAQWDGP [PPFIA4], in that order: 3.11 ± 0.37 and 3.31 ± 0.14. For LKKMGKRLDYLNLKGARLTVEQGC [FBXO39], in that order: 2.62 ± 0.34 and 2.67 ± 0.28. For LKLSIMSEEELTHIFGDLDSYIPL [NET1], in that order: 2.21 ± 0.1 and 2.28 ± 0.2. LKRKGKTDSPWIKPARKRRRRSRK [EHMT1]: the protein stability index was 5.1 ± 0.17 under setting [1] and 5.03 ± 0.23 under setting [2]. For LLAKMFGAKDSELASQNKPLWQCY [PDS5B], in that order: 2.57 ± 0.66 and 2.3 ± 0.31. In the same order, the values of LLCLFFGIPWEAGARQISYSIPEE [PCDHGA10] are 1.94 ± 0.035 and 2.45 ± 0.41. For LLLGSPHPAATALHAELCQAGSSQ [LPCAT4], in that order: 3.01 ± 0.42 and 3.18 ± 0.21. With LLLLQVSSSYAGQFRVIGPRHPIR [MOG], the protein stability index reads like this: under setting [1], 2.53 ± 0.51; under setting [2], 2.04 ± 0.22. For LLSKKGALQSRAAQRHRGSAKDGG [PLEKHN1], in that order: 4.31 ± 0.12 and 4.39 ± 0.28. In the same order, the values of LNATSKFMEFYQDVKDWWLFGFYF [EDNRA] are 2.49 ± 0.86 and 2.13 ± 0.37. LNLDIGQVYKETRLFLDGEEEKEW [AASDHPPT] registered a protein stability index under setting [1] of 3.95 ± 0.43 and a protein stability index under setting [2] of 4.09 ± 0.44. As for LNLTRKLAQQLCTALLFLATPELS [DYRK1B], the protein stability index is, setting by setting: under setting [1], 2.9 ± 0.51; under setting [2], 3.21 ± 0.47.

LPDSPLRFDGLPAVLGFPGFSSGR [TRIM15]: the protein stability index runs as follows: under setting [1], 2.87 ± 0.39; under setting [2], 3.18 ± 0.41. Take LPNYNWNSFGLRFGKREAAPGNHG [KISS1]: the protein stability index reads like this: under setting [1], 3.14 ± 0.36; under setting [2], 3.36 ± 0.42. In the same order, the values of LPQDEGGGGYSSVRYSDCCERVVI [KCNA4] are 2.41 ± 0.3 and 2.77 ± 0.53. For LPRKESPSVRSSKDGKLLAATLLL [TNFSF13B], in that order: 2.26 ± 0.21 and 2.18 ± 0.22. In the same order, the values of LQEVPTGLDSISHDSANCELPLLT [ETS2] are 4.71 ± 0.12 and 4.92 ± 0.42.

In the case of LQLGEGVEFDVLPAFDALGQLTGG [OAS1], the protein stability index reads like this: under setting [1], 2.37 ± 0.35; under setting [2], 2.72 ± 0.51. In the same order, the values of LQLLHECSPSQMDLLCAQLQLPQL [FANCE] are 2.33 ± 0.27 and 2.49 ± 0.11.
